Biological target: the molecule itself
Experiment: SEC; oligomeric state of saMnmM in solution examined by size exclusion chromatography; conditions not given

B1: Staphylococcus aureus MnmM (5-aminomethyl-2-thiouridine methyltransferase, formerly YtqB) (enzyme)
chain: MKLERILPFSKTLIKQHITPESIVVDATCGNGNDTLFLAEQVPEGHVYGFDIQDLALENTRDKVKDFNHVSLIKDGHENIEHHINDAHKGHIDAAIFNLGYLPKGDKSIVTKPDTTIQAINSLLSLMSIEGIIVLVIYHGHSEGQIEKHALLDYLSTLDQKHAQVLQYQFLNQRNHAPFICAIEKIS
notes: MnmM (YtqB) of Staphylococcus aureus, UniProt Q2FXG9; gene codon-optimized and synthesized; Truncated constructs are stated only for the plant orthologs; A C-terminal His-tag (pLATE31) is stated expressly only for the B. subtilis gene; also called saMnmM; saYtqB; source: E. coli BL21(DE3), purified (HisTrap HP, SEC Superdex 75)
In the case of B1, the “stoichiometry N” value is reported as 2.
